# Reference: IntAct's records for PubMed 12172031
# B1: Coronatine-insensitive protein 1 (Arabidopsis thaliana (Mouse-ear cress)), O04197 (parent)
# chain: MEDPDIKRCKLSCVATVDDVIEQVMTYITDPKDRDSASLVCRRWFKIDSETREHVTMALCYTATPDRLSRRFPNLRSLKLKGKPRAAMFNLIPENWGGYVTPWVTEISNNLRQLKSVHFRRMIVSDLDLDRLAKARADDLETLKLDKCSGFTTDGLLSIVTHCRKIKTLLMEESSFSEKDGKWLHELAQHNTSLEVLNFYMTEFAKISPKDLETIARNCRSLVSVKVGDFEILELVGFFKAAANLEEFCGGSLNEDIGMPEKYMNLVFPRKLCRLGLSYMGPNEMPILFPFAAQIRKLDLLYALLETEDHCTLIQKCPNLEVLETRNVIGDRGLEVLAQYCKQLKRLRIERGADEQGMEDEEGLVSQRGLIALAQGCQELEYMAVYVSDITNESLESIGTYLKNLCDFRLVLLDREERITDLPLDNGVRSLLIGCKKLRRFAFYLRQGGLTDLGLSYIGQYSPNVRWMLLGYVGESDEGLMEFSRGCPNLQKLEMRGCCFSERAIAAAVTKLPSLRYLWVQGYRASMTGQDLMQMARPYWNIELIPSRRVPEVNQQGEIREMEHPAHILAYYSLAGQRTDCPTTVRVLKEPI
# Variants of: B1
# Conditions: with skp1a_arath SKP1A
row,effect of a mutation on the interaction,Variant
1,decreasing interaction,MEDPDIKRCKLSCVATVDDVIAQVMTYITDPKDRDSASLVCRRWFKIDSETREHVTMALCYTATPDRLSRRFPNLRSLKLKGKPRAAMFNLIPENWGGYVTPWVTEISNNLRQLKSVHFRRMIVSDLDLDRLAKARADDLETLKLDKCSGFTTDGLLSIVTHCRKIKTLLMEESSFSEKDGKWLHELAQHNTSLEVLNFYMTEFAKISPKDLETIARNCRSLVSVKVGDFEILELVGFFKAAANLEEFCGGSLNEDIGMPEKYMNLVFPRKLCRLGLSYMGPNEMPILFPFAAQIRKLDLLYALLETEDHCTLIQKCPNLEVLETRNVIGDRGLEVLAQYCKQLKRLRIERGADEQGMEDEEGLVSQRGLIALAQGCQELEYMAVYVSDITNESLESIGTYLKNLCDFRLVLLDREERITDLPLDNGVRSLLIGCKKLRRFAFYLRQGGLTDLGLSYIGQYSPNVRWMLLGYVGESDEGLMEFSRGCPNLQKLEMRGCCFSERAIAAAVTKLPSLRYLWVQGYRASMTGQDLMQMARPYWNIELIPSRRVPEVNQQGEIREMEHPAHILAYYSLAGQRTDCPTTVRVLKEPI [E22A]

# Variants of: B1
# Conditions: with skp1b_arath SKP1B
row,effect of a mutation on the interaction,Variant
1,decreasing interaction,MEDPDIKRCKLSCVATVDDVIAQVMTYITDPKDRDSASLVCRRWFKIDSETREHVTMALCYTATPDRLSRRFPNLRSLKLKGKPRAAMFNLIPENWGGYVTPWVTEISNNLRQLKSVHFRRMIVSDLDLDRLAKARADDLETLKLDKCSGFTTDGLLSIVTHCRKIKTLLMEESSFSEKDGKWLHELAQHNTSLEVLNFYMTEFAKISPKDLETIARNCRSLVSVKVGDFEILELVGFFKAAANLEEFCGGSLNEDIGMPEKYMNLVFPRKLCRLGLSYMGPNEMPILFPFAAQIRKLDLLYALLETEDHCTLIQKCPNLEVLETRNVIGDRGLEVLAQYCKQLKRLRIERGADEQGMEDEEGLVSQRGLIALAQGCQELEYMAVYVSDITNESLESIGTYLKNLCDFRLVLLDREERITDLPLDNGVRSLLIGCKKLRRFAFYLRQGGLTDLGLSYIGQYSPNVRWMLLGYVGESDEGLMEFSRGCPNLQKLEMRGCCFSERAIAAAVTKLPSLRYLWVQGYRASMTGQDLMQMARPYWNIELIPSRRVPEVNQQGEIREMEHPAHILAYYSLAGQRTDCPTTVRVLKEPI [E22A]

# Variants of: B1
# Conditions: with cul1_arath CUL1, Q94AH6
# cul1_arath CUL1, Q94AH6, sequence (Q94AH6 whole entry): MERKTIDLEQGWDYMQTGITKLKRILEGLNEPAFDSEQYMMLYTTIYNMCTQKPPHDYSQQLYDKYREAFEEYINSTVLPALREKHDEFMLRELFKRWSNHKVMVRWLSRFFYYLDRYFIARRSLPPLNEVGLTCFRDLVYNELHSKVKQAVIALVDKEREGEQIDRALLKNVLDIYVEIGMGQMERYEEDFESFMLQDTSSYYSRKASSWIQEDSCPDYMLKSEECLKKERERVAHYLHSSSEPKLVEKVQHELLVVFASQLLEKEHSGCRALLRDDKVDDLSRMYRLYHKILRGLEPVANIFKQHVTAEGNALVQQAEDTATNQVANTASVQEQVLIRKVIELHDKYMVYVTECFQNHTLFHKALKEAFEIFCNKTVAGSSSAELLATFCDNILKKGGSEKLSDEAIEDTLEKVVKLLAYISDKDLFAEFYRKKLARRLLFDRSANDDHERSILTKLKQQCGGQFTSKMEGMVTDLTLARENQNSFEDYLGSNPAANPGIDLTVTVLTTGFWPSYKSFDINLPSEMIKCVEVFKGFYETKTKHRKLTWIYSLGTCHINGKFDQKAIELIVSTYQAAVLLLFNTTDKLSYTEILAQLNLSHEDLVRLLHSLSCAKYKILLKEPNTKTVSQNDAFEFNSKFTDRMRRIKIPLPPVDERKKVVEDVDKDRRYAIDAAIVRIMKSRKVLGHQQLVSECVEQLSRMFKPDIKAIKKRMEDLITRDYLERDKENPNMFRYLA
row,effect of a mutation on the interaction,Variant
1,decreasing interaction,MEDPDIKRCKLSCVATVDDVIAQVMTYITDPKDRDSASLVCRRWFKIDSETREHVTMALCYTATPDRLSRRFPNLRSLKLKGKPRAAMFNLIPENWGGYVTPWVTEISNNLRQLKSVHFRRMIVSDLDLDRLAKARADDLETLKLDKCSGFTTDGLLSIVTHCRKIKTLLMEESSFSEKDGKWLHELAQHNTSLEVLNFYMTEFAKISPKDLETIARNCRSLVSVKVGDFEILELVGFFKAAANLEEFCGGSLNEDIGMPEKYMNLVFPRKLCRLGLSYMGPNEMPILFPFAAQIRKLDLLYALLETEDHCTLIQKCPNLEVLETRNVIGDRGLEVLAQYCKQLKRLRIERGADEQGMEDEEGLVSQRGLIALAQGCQELEYMAVYVSDITNESLESIGTYLKNLCDFRLVLLDREERITDLPLDNGVRSLLIGCKKLRRFAFYLRQGGLTDLGLSYIGQYSPNVRWMLLGYVGESDEGLMEFSRGCPNLQKLEMRGCCFSERAIAAAVTKLPSLRYLWVQGYRASMTGQDLMQMARPYWNIELIPSRRVPEVNQQGEIREMEHPAHILAYYSLAGQRTDCPTTVRVLKEPI [E22A]
